Stoichiometry N data for 3 substances are collected here from PMC10470895.

“And” between values parts separate entries of the source, which are not always exact repeats. Identical values can stand only once.

Test [1] has as its target Pyruvate kinase M2 (PKM2) of the X. laevis oocyte nucleus (X. laevis (endogenous in oocytes)). The test is described as follows: native gel or EMSA; oocyte nuclear homogenate, native PAGE as in Sen et al. (2016), 2x loading buffer with 200 mM KCl, Western blotting with anti-PKM2; Precision Plus markers. (A gel shift assay detects complexes by their altered migration in electrophoresis.)

In test [2] the target is X. laevis oocyte GAPDH (glyceraldehyde 3-phosphate dehydrogenase, somatic form; GAPDH.s and GAPDH.l) (X. laevis (endogenous in oocytes)) (UniProt P51469). The test is described as follows: native gel or EMSA; oocyte nuclear (up to 0.5 nuclei) and cytoplasmic (0.05 cytoplasm) homogenates in HR buffer on Invitrogen 4-16% NativePAGE Bis-Tris gel, Western blotting; compared with the bands of recombinant human GAPDH; second-dimension SDS-PAGE for cytoplasm.

The target in test [3] is recombinant human GAPDH (glyceraldehyde 3-phosphate dehydrogenase) (human) (UniProt P04406). The test is described as follows: native gel or EMSA; purified recombinant human GAPDH (1 ug) on Invitrogen 4-16% NativePAGE Bis-Tris gel, Western blotting; bands confirmed as GAPDH by second-dimension SDS-PAGE (about 36 kDa).

recombinant human GAPDH (glyceraldehyde 3-phosphate dehydrogenase), P04406 1-335 (enzyme; other documents disagree on this pair), sequence (P04406 whole entry): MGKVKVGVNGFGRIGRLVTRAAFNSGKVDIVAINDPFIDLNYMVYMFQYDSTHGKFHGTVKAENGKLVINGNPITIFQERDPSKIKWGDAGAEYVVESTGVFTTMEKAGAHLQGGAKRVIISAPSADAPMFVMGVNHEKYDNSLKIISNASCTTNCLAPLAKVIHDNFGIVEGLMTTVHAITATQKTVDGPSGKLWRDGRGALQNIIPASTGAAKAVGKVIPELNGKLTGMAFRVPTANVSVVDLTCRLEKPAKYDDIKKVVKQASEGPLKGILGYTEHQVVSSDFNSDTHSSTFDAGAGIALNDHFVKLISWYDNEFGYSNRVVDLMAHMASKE
X. laevis oocyte GAPDH (glyceraldehyde 3-phosphate dehydrogenase, somatic form; GAPDH.s and GAPDH.l), sequence (P51469 whole entry): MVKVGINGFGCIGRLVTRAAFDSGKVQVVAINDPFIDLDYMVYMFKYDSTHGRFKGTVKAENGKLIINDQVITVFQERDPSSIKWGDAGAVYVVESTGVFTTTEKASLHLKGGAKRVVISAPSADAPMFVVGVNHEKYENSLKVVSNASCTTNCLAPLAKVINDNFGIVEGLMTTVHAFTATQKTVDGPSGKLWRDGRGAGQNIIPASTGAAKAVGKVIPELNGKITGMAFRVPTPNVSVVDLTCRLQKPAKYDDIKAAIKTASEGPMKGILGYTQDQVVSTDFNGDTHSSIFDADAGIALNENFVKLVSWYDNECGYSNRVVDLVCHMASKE

Take “Pyruvate kinase M2 (PKM2) of the X. laevis oocyte nucleus (enzyme)”: in test [1], the stoichiometry N (as a rule, the number of molecules, sites or subunits per partner or assembly) came out at 4.

On to “X. laevis oocyte GAPDH (glyceraldehyde 3-phosphate dehydrogenase, somatic form; GAPDH.s and GAPDH.l) (from UniProt P51469 1-333) (enzyme)”, for which the stoichiometry N in test [2] was found to be 4.

For the substance “recombinant human GAPDH (glyceraldehyde 3-phosphate dehydrogenase), P04406 1-335 (enzyme; other documents disagree on this pair)”, in test [3], the stoichiometry N was 2 and 4.
